Tests used:
[1] = target: T1, ProQ NTD R62A R62A (Escherichia coli) (UniProt P45577); experiment: EMSA; conditions: EMSA: 25 mM Tris pH 7.5, 150 mM NaCl, 5% glycerol, 1 mM MgCl2, 1 nM 32P-RNA, 30 min RT; microplates pretreated with 0.0025% BSA; 6% gel in 0.5x TBE at 4 C
T1 sequence: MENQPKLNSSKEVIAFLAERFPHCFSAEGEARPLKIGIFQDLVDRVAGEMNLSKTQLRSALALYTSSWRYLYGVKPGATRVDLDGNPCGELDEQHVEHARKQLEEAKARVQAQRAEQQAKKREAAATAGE

[2] = target: T2, ProQ NTD R32A R32A (Escherichia coli) (UniProt P45577); experiment: EMSA; conditions: EMSA: 25 mM Tris pH 7.5, 150 mM NaCl, 5% glycerol, 1 mM MgCl2, 1 nM 32P-RNA, 30 min RT; microplates pretreated with 0.0025% BSA; 6% gel in 0.5x TBE at 4 C
T2 sequence: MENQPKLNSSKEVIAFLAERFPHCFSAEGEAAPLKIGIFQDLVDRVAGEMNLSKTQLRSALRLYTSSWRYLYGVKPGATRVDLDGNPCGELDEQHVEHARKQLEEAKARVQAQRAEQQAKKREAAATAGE

[3] = target: T3, ProQ NTD D41A D41A (Escherichia coli) (UniProt P45577); experiment: EMSA; conditions: EMSA: 25 mM Tris pH 7.5, 150 mM NaCl, 5% glycerol, 1 mM MgCl2, 1 nM 32P-RNA, 30 min RT; microplates pretreated with 0.0025% BSA; 6% gel in 0.5x TBE at 4 C
T3 sequence: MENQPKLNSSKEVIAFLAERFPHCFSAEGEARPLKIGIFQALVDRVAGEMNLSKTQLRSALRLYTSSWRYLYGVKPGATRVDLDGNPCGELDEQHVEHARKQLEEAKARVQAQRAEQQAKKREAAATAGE

[4] = target: T4, ProQ NTD K54A K54A (Escherichia coli) (UniProt P45577); experiment: EMSA; conditions: EMSA: 25 mM Tris pH 7.5, 150 mM NaCl, 5% glycerol, 1 mM MgCl2, 1 nM 32P-RNA, 30 min RT; microplates pretreated with 0.0025% BSA; 6% gel in 0.5x TBE at 4 C
T4 sequence: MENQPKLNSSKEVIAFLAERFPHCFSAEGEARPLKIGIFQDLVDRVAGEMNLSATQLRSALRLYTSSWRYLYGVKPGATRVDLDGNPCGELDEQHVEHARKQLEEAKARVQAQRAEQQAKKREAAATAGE

[5] = target: T5, ProQ NTD T65A T65A (Escherichia coli) (UniProt P45577); experiment: EMSA; conditions: EMSA: 25 mM Tris pH 7.5, 150 mM NaCl, 5% glycerol, 1 mM MgCl2, 1 nM 32P-RNA, 30 min RT; microplates pretreated with 0.0025% BSA; 6% gel in 0.5x TBE at 4 C
T5 sequence: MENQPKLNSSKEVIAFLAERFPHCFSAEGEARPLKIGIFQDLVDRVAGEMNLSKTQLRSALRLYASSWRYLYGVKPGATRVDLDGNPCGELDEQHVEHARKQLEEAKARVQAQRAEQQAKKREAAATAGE

[6] = target: T6, ProQ NTD R58A R58A (Escherichia coli) (UniProt P45577); experiment: EMSA; conditions: EMSA: 25 mM Tris pH 7.5, 150 mM NaCl, 5% glycerol, 1 mM MgCl2, 1 nM 32P-RNA, 30 min RT; microplates pretreated with 0.0025% BSA; 6% gel in 0.5x TBE at 4 C
T6 sequence: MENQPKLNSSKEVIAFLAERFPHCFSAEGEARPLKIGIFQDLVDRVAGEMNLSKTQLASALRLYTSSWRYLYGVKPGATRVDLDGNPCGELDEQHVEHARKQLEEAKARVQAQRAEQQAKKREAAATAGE

[7] = target: T7, ProQ NTD K35A K35A (Escherichia coli) (UniProt P45577); experiment: EMSA; conditions: EMSA: 25 mM Tris pH 7.5, 150 mM NaCl, 5% glycerol, 1 mM MgCl2, 1 nM 32P-RNA, 30 min RT; microplates pretreated with 0.0025% BSA; 6% gel in 0.5x TBE at 4 C
T7 sequence: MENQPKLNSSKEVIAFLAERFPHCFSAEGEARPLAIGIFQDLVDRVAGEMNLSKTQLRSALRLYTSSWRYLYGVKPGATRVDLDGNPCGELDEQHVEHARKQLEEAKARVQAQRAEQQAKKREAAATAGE

[8] = target: T8, ProQ NTD Y70F Y70F (Escherichia coli) (UniProt P45577); experiment: EMSA; conditions: EMSA: 25 mM Tris pH 7.5, 150 mM NaCl, 5% glycerol, 1 mM MgCl2, 1 nM 32P-RNA, 30 min RT; microplates pretreated with 0.0025% BSA; 6% gel in 0.5x TBE at 4 C
T8 sequence: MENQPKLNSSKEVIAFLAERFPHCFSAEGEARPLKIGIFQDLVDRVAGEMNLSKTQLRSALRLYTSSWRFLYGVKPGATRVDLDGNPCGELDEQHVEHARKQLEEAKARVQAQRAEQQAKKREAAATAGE

[9] = target: T9, ProQ NTD R69A (Escherichia coli, UniProt P45577 1-130, R69A); experiment: EMSA; EMSA: 25 mM Tris pH 7.5, 150 mM NaCl, 5% glycerol, 1 mM MgCl2, 1 nM 32P-RNA, 30 min RT; microplates pretreated with 0.0025% BSA; 6% gel in 0.5x TBE at 4 C; conditions: protein: recombinant; tags: His6-TEV removed, N-terminal Ser remains; label: 5'-32P; hairpin, 6 U tail (2 predicted single-stranded)
T9 sequence: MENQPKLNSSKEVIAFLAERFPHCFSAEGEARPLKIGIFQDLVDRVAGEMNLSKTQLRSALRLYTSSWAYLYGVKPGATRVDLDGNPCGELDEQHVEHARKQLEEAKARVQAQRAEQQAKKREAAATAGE

[10] = target: T10, ProQ NTD K35A (Escherichia coli, UniProt P45577 1-130, K35A); experiment: as above; conditions: protein: recombinant, tags: His6-TEV removed, N-terminal Ser remains, label: 5'-32P
T10 sequence: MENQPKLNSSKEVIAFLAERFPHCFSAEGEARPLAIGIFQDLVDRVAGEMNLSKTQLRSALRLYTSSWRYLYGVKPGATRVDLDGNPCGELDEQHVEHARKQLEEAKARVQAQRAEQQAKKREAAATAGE

[11] = target: T9, ProQ NTD R69A; experiment: EMSA; affinity not decreased vs R69A with cspE-3'; EMSA: 25 mM Tris pH 7.5, 150 mM NaCl, 5% glycerol, 1 mM MgCl2, 1 nM 32P-RNA, 30 min RT; microplates pretreated with 0.0025% BSA; 6% gel in 0.5x TBE at 4 C; conditions: protein: recombinant; tags: His6-TEV removed, N-terminal Ser remains; label: 5'-32P; hairpin with 5' and 3' single-stranded regions
[12] = target: T10, ProQ NTD K35A; experiment: EMSA; max fraction bound similar to WT; EMSA: 25 mM Tris pH 7.5, 150 mM NaCl, 5% glycerol, 1 mM MgCl2, 1 nM 32P-RNA, 30 min RT; microplates pretreated with 0.0025% BSA; 6% gel in 0.5x TBE at 4 C; conditions: protein: recombinant; tags: His6-TEV removed, N-terminal Ser remains; label: 5'-32P; terminator hairpin, 8 U 3' tail
[13] = target: T11, ProQ NTD R80K (Escherichia coli, UniProt P45577 1-130, R80K); experiment: EMSA; EMSA: 25 mM Tris pH 7.5, 150 mM NaCl, 5% glycerol, 1 mM MgCl2, 1 nM 32P-RNA, 30 min RT; microplates pretreated with 0.0025% BSA; 6% gel in 0.5x TBE at 4 C; conditions: protein: recombinant; tags: His6-TEV removed, N-terminal Ser remains; label: 5'-32P; terminator hairpin, 8 U 3' tail
T11 sequence: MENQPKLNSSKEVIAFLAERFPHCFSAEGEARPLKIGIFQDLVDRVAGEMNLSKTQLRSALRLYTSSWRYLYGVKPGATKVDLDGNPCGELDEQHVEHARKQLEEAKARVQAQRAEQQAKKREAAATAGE

[14] = target: T12, ProQ NTD R80A (Escherichia coli, UniProt P45577 1-130, R80A); experiment: as above; conditions: protein: recombinant; tags: His6-TEV removed, N-terminal Ser remains; label: 5'-32P; terminator hairpin, 8 U 3' tail
T12 sequence: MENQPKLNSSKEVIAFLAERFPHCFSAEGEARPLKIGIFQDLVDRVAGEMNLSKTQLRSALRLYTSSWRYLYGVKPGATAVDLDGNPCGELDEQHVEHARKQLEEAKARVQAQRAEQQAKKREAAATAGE

[15] = target: T13, ProQ NTD D41A (Escherichia coli, UniProt P45577 1-130, D41A); experiment: as above; conditions: protein: recombinant; tags: His6-TEV removed, N-terminal Ser remains; label: 5'-32P; terminator hairpin, 8 U 3' tail
T13 sequence: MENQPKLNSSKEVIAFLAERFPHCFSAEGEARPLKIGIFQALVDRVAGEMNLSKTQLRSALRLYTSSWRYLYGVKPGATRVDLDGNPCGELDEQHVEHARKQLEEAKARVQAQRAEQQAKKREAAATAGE

[16] = target: T14, ProQ NTD T65A (Escherichia coli, UniProt P45577 1-130, T65A); experiment: as above; conditions: protein: recombinant; tags: His6-TEV removed, N-terminal Ser remains; label: 5'-32P; terminator hairpin, 8 U 3' tail
T14 sequence: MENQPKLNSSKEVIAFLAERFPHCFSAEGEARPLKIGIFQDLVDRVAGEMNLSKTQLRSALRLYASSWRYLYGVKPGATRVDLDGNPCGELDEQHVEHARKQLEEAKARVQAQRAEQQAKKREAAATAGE

[17] = target: T9, ProQ NTD R69A; experiment: EMSA; max fraction bound 88%; EMSA: 25 mM Tris pH 7.5, 150 mM NaCl, 5% glycerol, 1 mM MgCl2, 1 nM 32P-RNA, 30 min RT; microplates pretreated with 0.0025% BSA; 6% gel in 0.5x TBE at 4 C; conditions: protein: recombinant; tags: His6-TEV removed, N-terminal Ser remains; label: 5'-32P; terminator hairpin, 8 U 3' tail
[18] = target: T15, ProQ NTD R62A (Escherichia coli, UniProt P45577 1-130, R62A); experiment: EMSA; max fraction bound just above 40%; EMSA: 25 mM Tris pH 7.5, 150 mM NaCl, 5% glycerol, 1 mM MgCl2, 1 nM 32P-RNA, 30 min RT; microplates pretreated with 0.0025% BSA; 6% gel in 0.5x TBE at 4 C; conditions: protein: recombinant; tags: His6-TEV removed, N-terminal Ser remains; label: 5'-32P; terminator hairpin, 8 U 3' tail
T15 sequence: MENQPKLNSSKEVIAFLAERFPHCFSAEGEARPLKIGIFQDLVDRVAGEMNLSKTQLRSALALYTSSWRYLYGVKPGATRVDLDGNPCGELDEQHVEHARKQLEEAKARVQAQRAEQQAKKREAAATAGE

[19] = target: T9, ProQ NTD R69A; experiment: EMSA; EMSA: 25 mM Tris pH 7.5, 150 mM NaCl, 5% glycerol, 1 mM MgCl2, 1 nM 32P-RNA, 30 min RT; microplates pretreated with 0.0025% BSA; 6% gel in 0.5x TBE at 4 C; conditions: protein: recombinant; tags: His6-TEV removed, N-terminal Ser remains; label: 5'-32P; hairpin, no 5' single strand
[20] = target: T10, ProQ NTD K35A; experiment: as above; conditions: protein: recombinant; tags: His6-TEV removed, N-terminal Ser remains; label: 5'-32P; hairpin, no 5' single strand

gapA-3'
binding signal [1]: < 20 % max bound
binding signal (fold weaker Kd than WT) [2]: 1
binding signal (fold weaker Kd than WT) [3]: 1
binding signal [4]: < 20 % max bound
binding signal (fold weaker Kd than WT) [5]: 1
Kd [6]: > 1000 nM

malM-3'
binding signal [1]: 25 % max bound
binding signal [7]: 70 % max bound
binding signal (fold weaker Kd than WT) [2]: 1
binding signal (fold weaker Kd than WT) [3]: 3
binding signal [4]: 30 % max bound
binding signal (fold weaker Kd than WT) [5]: 2
Kd [6]: > 1000 nM
binding signal [8]: < 20 % max bound

GGAAUUCGGAAGGCGCUUAAUCAGCGCCUUUUUU (structured_RNA) [cspE-mini-3'-6U]
binding signal [9]: ~2.4 fold weaker Kd than R69A with cspE-mini
binding signal ([10]; hairpin, 6 U tail (2 predicted single-stranded)): ~1.4 fold weaker Kd than K35A with cspE-mini

GGAAUUCGGAAGGCGCUUAAUCAGCGCCUUUUUUUU (structured_RNA) [cspE-mini]
binding signal ([10]; hairpin with 5' and 3' single-stranded regions): ~2 fold weaker Kd than K35A with cspE-3'
binding result [11]: binds

B1: cspE-3' (structured_RNA)
RNA: GUAAGAUACGUCAGCAAGAAUUCAAAACCCGCUUAAUCAGCGGGUUUUUUUU
binding result [12]: binds
binding result [13]: no binding
binding result [14]: no binding
binding signal [15]: ~3 fold weaker Kd than WT
binding signal [16]: ~4 fold weaker Kd than WT
Kd [17]: 20 nM
binding signal [18]: ~4 fold weaker Kd than WT

GGAAGGCGCUUAAUCAGCGCCUUUUUUUU (structured_RNA) [cspE-mini-5'-blunt]
binding result [19]: no binding
binding result [20]: no binding

From article PMC10578477, “Biochemical and genetic dissection of the RNA-binding surface of the FinO domain of Escherichia coli ProQ”
